B1: murine C3b Asn1115 (complex)
chain 1: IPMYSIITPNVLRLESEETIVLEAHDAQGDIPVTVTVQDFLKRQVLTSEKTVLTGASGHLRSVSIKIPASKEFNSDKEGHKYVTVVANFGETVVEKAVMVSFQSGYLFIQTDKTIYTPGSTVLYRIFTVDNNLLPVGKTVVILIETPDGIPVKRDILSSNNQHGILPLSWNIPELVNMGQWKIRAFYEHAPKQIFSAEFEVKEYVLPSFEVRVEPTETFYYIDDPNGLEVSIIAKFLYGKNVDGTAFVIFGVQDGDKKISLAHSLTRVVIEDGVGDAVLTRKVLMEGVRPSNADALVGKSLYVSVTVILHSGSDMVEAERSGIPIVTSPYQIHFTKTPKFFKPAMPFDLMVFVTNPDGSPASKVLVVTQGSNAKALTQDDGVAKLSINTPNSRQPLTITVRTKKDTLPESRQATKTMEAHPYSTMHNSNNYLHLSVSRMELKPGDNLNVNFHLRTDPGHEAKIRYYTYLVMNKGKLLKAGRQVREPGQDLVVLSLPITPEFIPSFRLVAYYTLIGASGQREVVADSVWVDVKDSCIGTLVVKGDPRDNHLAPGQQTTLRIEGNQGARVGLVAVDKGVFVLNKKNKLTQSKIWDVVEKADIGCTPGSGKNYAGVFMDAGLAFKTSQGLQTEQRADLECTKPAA
chain 2: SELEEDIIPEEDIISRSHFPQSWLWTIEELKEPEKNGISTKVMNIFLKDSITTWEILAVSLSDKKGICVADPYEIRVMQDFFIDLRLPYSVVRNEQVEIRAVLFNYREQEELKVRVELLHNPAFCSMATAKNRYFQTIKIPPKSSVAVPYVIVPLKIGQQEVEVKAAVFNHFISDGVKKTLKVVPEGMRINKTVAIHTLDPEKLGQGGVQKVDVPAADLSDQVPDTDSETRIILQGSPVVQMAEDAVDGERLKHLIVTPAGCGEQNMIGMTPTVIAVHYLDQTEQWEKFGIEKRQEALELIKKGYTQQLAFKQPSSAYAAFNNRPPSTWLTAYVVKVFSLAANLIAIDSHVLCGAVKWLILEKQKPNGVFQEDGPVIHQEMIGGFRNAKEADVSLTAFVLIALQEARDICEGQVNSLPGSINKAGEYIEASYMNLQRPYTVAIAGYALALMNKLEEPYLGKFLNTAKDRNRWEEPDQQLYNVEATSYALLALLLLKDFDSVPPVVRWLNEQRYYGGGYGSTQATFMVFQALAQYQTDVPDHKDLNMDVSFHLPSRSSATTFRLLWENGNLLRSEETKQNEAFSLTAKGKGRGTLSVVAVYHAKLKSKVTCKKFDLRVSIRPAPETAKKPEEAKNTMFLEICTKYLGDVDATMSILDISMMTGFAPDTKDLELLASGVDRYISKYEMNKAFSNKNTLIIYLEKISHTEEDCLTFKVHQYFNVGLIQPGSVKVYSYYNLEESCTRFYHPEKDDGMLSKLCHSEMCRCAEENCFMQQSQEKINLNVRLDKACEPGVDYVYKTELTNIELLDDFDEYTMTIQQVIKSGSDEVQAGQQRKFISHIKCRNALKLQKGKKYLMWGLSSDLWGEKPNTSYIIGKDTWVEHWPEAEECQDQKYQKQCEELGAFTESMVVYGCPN
modifications: C3b made from plasma-purified C3 by factor B/factor D cleavage (C3a released); beta and alpha' chains disulfide-linked; thioester (Cys1010-Gln1013) hydrolysed; N-glycosylated; amine-coupled to CM5 …
B2: full-length mouse serum-derived FH (natural protein, UniProt P06909 19-1234, looked up)
chain: EDCKGPPPRENSEILSGSWSEQLYPEGTQATYKCRPGYRTLGTIVKVCKNGKWVASNPSRICRKKPCGHPGDTPFGSFRLAVGSQFEFGAKVVYTCDDGYQLLGEIDYRECGADGWINDIPLCEVVKCLPVTELENGRIVSGAAETDQEYYFGQVVRFECNSGFKIEGHKEIHCSENGLWSNEKPRCVEILCTPPRVENGDGINVKPVYKENERYHYKCKHGYVPKERGDAVCTGSGWSSQPFCEEKRCSPPYILNGIYTPHRIIHRSDDEIRYECNYGFYPVTGSTVSKCTPTGWIPVPRCTLKPCEFPQFKYGRLYYEESLRPNFPVSIGNKYSYKCDNGFSPPSGYSWDYLRCTAQGWEPEVPCVRKCVFHYVENGDSAYWEKVYVQGQSLKVQCYNGYSLQNGQDTMTCTENGWSPPPKCIRIKTCSASDIHIDNGFLSESSSIYALNRETSYRCKQGYVTNTGEISGSITCLQNGWSPQPSCIKSCDMPVFENSITKNTRTWFKLNDKLDYECLVGFENEYKHTKGSITCTYYGWSDTPSCYERECSVPTLDRKLVVSPRKEKYRVGDLLEFSCHSGHRVGPDSVQCYHFGWSPGFPTCKGQVASCAPPLEILNGEINGAKKVEYSHGEVVKYDCKPRFLLKGPNKIQCVDGNWTTLPVCIEEERTCGDIPELEHGSAKCSVPPYHHGDSVEFICEENFTMIGHGSVSCISGKWTQLPKCVATDQLEKCRVLKSTGIEAIKPKLTEFTHNSTMDYKCRDKQEYERSICINGKWDPEPNCTSKTSCPPPPQIPNTQVIETTVKYLDGEKLSVLCQDNYLTQDSEEMVCKDGRWQSLPRCIEKIPCSQPPTIEHGSINLPRSSEERRDSIESSSHEHGTTFSYVCDDGFRIPEENRITCYMGKWSTPPRCVGLPCGPPPSIPLGTVSLELESYQHGEEVTYHCSTGFGIDGPAFIICEGGKWSDPPKCIKTDCDVLPTVKNAIIRGKSKKSYRTGEQVTFRCQSPYQMNGSDTVTCVNSRWIGQPVCKDNSCVDPPHVPNATIVTRTKNKYLHGDRVRYECNKPLELFGQVEVMCENGIWTEKPKCRDSTGKCGPPPPIDNGDITSLSLPVYEPLSSVEYQCQKYYLLKGKKTITCRNGKWSEPPTCLHACVIPENIMESHNIILKWRHTEKIYSHSGEDIEFGCKYGYYKARDSPPFRTKCINGTINYPTCV
notes: mouse complement factor H, full length, from serum; also called murine FH; mouse FH

Experiments:
Experiment in all cases: SPR; BIAcore S200; murine C3b (WT or Asn1115) amine coupled to a CM5 chip (930 ± 10 RU); analytes in 2-fold dilution series in HBST (10 mM HEPES, 150 mM NaCl, 0.005% Tween-20, pH 7.4), 30 μl/min for 200 s; steady-state model
Conditions in all cases: both partners purified
[1] = molecular target: T1, recombinant murine FH SCRs 1–5 (mouse)
T1 construct: mouse complement factor H, short consensus repeats 1–5; also called recombinant mouse FH1–5; mFH SCRs 1–5; source: recombinant

[2] = molecular target: T2, recombinant murine Crry SCRs 1–5 (mouse)
T2 construct: mouse Crry (complement receptor 1-related protein), short consensus repeats 1–5; also called recombinant mouse Crry; mouse Crry; source: recombinant
T2 sequence (P01027 749-1663, change not shown, chain 1 of 2): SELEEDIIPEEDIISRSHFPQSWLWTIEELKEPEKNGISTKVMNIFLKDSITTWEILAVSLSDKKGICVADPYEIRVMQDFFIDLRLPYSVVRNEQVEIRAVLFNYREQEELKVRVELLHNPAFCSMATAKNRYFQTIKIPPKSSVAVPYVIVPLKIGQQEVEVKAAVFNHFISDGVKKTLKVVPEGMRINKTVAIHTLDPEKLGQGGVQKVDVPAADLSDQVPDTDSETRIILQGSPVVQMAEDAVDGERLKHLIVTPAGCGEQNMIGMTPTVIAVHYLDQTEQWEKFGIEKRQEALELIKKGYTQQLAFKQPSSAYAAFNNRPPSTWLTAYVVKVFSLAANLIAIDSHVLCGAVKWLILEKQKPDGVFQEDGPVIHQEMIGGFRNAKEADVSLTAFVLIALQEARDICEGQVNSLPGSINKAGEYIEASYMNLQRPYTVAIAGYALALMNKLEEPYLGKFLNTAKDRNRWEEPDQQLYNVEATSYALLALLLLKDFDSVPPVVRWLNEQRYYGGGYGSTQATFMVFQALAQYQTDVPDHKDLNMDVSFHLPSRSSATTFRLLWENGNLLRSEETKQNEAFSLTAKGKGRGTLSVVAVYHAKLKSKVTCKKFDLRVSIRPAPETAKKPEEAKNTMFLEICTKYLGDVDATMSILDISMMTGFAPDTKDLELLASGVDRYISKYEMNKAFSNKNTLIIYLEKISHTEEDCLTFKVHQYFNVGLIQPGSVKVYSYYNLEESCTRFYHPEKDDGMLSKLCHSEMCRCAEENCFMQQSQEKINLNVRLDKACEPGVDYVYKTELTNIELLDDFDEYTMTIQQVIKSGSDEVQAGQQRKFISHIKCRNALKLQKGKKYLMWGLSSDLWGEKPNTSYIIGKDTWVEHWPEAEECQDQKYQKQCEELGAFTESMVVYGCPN
T2 sequence (P01027 749-1663 D1115N, chain 2 of 2): as the sequence (P01027 749-1663, change not shown, chain 1 of 2) above, with D367N counted along it

murine C3b Asn1115 = molecular target: B1
Chain of murine C3b Asn1115 (P01027 749-1663, change not shown, chain 1 of 2): as the sequence (P01027 749-1663, change not shown, chain 1 of 2) above
Chain of murine C3b Asn1115 (P01027 749-1663 D1115N, chain 2 of 2): as the sequence (P01027 749-1663, change not shown, chain 1 of 2) above, with D367N counted along it

Row | Binder | Kd [1] [µM] | Kd [2] [µM] | Kd (murine C3b Asn1115) [µM]
1 | B1 | 3.1 | 3.5 | –
2 | B2 | – | – | 3.7

— PMC6391106, “Hyperfunctional complement C3 promotes C5-dependent atypical hemolytic uremic syndrome in mice” (The Journal of Clinical Investigation, 2019)
